Here are results for 13 sequences from a protein production outcome set (Wang et al. 2014).

This data set in a line: label from the status in PepcDB records.

Consider “MSQDRIAGIDVATNSTDISNIINEMIICIKGKQMPEVHEKAMDHLSKMIAANSRVIRDSNMLTERECVQKIMKLLSARYKKEEGKTVSDHFNELYRKLTLTKCDPHMRHSLMTHLLTITDNSDAEKAVASEDPRTQCDNLTQILVSRLNSISSSIASLNEMGVVNGNGVGAAAVTGAAAVTGAAAVTGAAAVTGAAASHSYDATQSSIGLRKQSLPNYLDATKMLPESRHDIVMSAIYSFTGVQGKYLKKDVVTGRFKLDQQNIKFLTTGQAGMLLRLSELGYYHDRVVKFSDVSTGFNAIGSMGQALISKLKEELANFHGQVAMLHDEMQRFRQASVNGIANKGKKDSGPDAGDEMTLFKLLAWYIKPLHRMQWLTKIADACQVKKGGDLASTVYDFLDNGNDMVNKLVEDFLTAICGPLVRMISKWILEGGISDMHREFFVKSIKDVGVDRLWHDKFRLRLPMLPKFVPMDMANKIFMTGKSINFLREICEEQGMMKERDELMKVMESSASQIFSYTPDTSWHAAVETCYQQTSKHVLDIMVGPHKLLDHLHGMRRYLLLGQGDFISILIENMKNELERPALDIYANDLTSMLDSALRCTNAQYDDPDILNHLDVIVQRPFNGDIGWNIISLQYIVHGPLAAMLESTMPTYKVLFKPLWRMKHMEFVLSMKIWKEQMGNAKALRTMKSEIGKASHRLNLFTSEIMHFIHQMQYYVLFEVIECNWVELQKKMQKATTLDEILEAHEKFLQTILVGCFVSNKASVEHSLEVVYENIIELEKWQSSFYKDCFKELNARKELSKIVEKSEKKGVYGLTNKMILQRDQEAKIFAEKMDIACRGLEVIATDYEKAVSTFLMSLNSSDDPNLQLFGTRLDFNEYYKKRDTNLSKPLTFEHMRMSNVFAVNSRFVICTPSTQE”, for which the protein production entry was “failed”.

“MSQEQRMQKTFEVENHLGYRILRWVLLVALLSGILMSAVQVVLDAKRVSAELERDAAQTLAMVEDSATQAVFSIDDTLAQQVVDGLFALEPIHMAKITHPDGDELGDRLRPLQDSPFRPLTDPIFGQVREYRESLTRGSNPDLVYGYLEVHYDTAPYARTWLGRALVTFASGIALALILGIVLFVVFHLLLTRPLLRIVQSVKKVDPAHPDDRLVSIPEGHRADELGLWVNATNNLLVAIGDTQKKHREAEDRVTRLARYDTLTGLPSRDAFMEDLQGAIERAQEGHSSIALMVCGIDDFKSVNEQCGFRTGDTILQTVASRLTANLSSDRFNVARLGSDQFVIVEKHLRDGFQAAETAEKVLATIGSPINSGNHRISMTATLGISLFPSDADQADRLLQSAEQTMALAKQTGHNHFQFYVASIDKEIRERKQMEKDLAQALANHEFHLVYQPQINLETRRVIGAEALLRWEHPEHGMIPPDLFIPVAEANGSIVEIGQWVLDQACWQAARWASEGTHLRIAVNLSAVQLRQESIVDDILNTLKRHNIPAGRLELEVTETSFMTNLTDAVAKLHRLHRAGISIAVDDFGTGYSSLTYLKQMPVQHLKIDKQFIRDLLINEEDTRIANTIIDLGKSLNLTVVAEGVETAEQEYYLSQRGCALAQGYFFSKPLLPRDFANFVQTFHARIVENNA”: the protein production entry is “failed”. Regarding “MSQFAINIMFVGGSFLLYIAIAVWAKAGSTSDFYVAGGGVHPITNGAAIGADWMSAASFISMAGLIAAGGYANSTFLMGWTGGYVLLAMLLAPYLRKFGKFTVPEFIGDRYYSANARLVAVICLIVASVTYVIGQMAGAGVAFSRFLEVDATTGLIIAAVVVFVYAVLGGMKGITYTQVAQYCVLIVAYTIPAVFISIQLTGNPIPGLGMFSTHTDSGLPLLEKLNQVITDLGFNEYTADVDNKLNMVLFTLSLMIGTAGLPHVIIRFFTVPKVADARWSGGWALVFIALLYLTAPAVASMARLNLMTTIYPDGTQAAPIEYDERPNWVKEWEVTGLIQFTDKNEDGRIQLYNDVPAFEAEAQARGWNGNELVVNRDILVLANPEIANLPGWVIGLIAAGGLAAALSTAAGLLLAISSAVSHDLIKGRFNPSISDKGELMAARISMAVAIVVATYLGANPPGFAAQVVALAFGIAAASLFPALMMGIFSKRVNNVGATLGMLSGLLFTLIYIFVYKGWLFIPGTNNLPDTPENWVLGISPLSIGAVGALVNFAVAFAVSKATAEPPVEIQELVESVRYPRGAGTAQDH”, the protein production entry was “failed”. For “MSQHLFTAFILTALAGLSTGIGSLIAFVTKHTNKTFLSVSLGFSAGVMIYVSMIEIFPTAQTILTKAMDKKSGSWLTVLAFFGGILLIAIIDKLIPSEENPHEIKTIEEEDQKPTKLMRMGLMTAIAIGIHNFPEGLATFISGLQDASIAIPIVIAIAIHNIPEGIAVSVPIYQATGSKKKAFTYSFLSGLAEPLGAIIGWFLLMPIMNNIVYGAIFSAVAGIMVFISLDELLPAAEEYGKHHLAIYGVISGMLIMAVSLLLFI”, the protein production result is “failed”. The value for “MSQKIVILGSGESGVGAALLSKAKGYDTFVSDSSMITEAFIAELQQAGIAFEQGVHSEEKILSAQLIVKSPGIPEKAPIMKLIRSKAIEVISEIEFAYRHIHPGAKFIAITGSNGKTTTTLLTHHILAQLGYSVGLGGNIGTSLARQIIHEKKDVYVLELSSFQLDDMYTFKADVAVLLNITPDHLDRYEYKFENYTASKFRIFQNLTPADYYITYSEDSVIESYKKDHPVDARYVPVSLKQLYSAGAYSDEKTIQIHALDDTVVTCNTEEFPLQGKHNYINIMAALNAAVSIGADIHKSIASIKSFRNAPHRLEFVGSIYGVKFVNDSKATNVDSVWYALDSMKTPVVLIVGGVDKGNDYSQIEALVKEKVHTVVALGKDNSKVLSGFASMVSEIKEAHSMVEAIRIAHDSAKKGDTVLLSPACASFDLFKNYEDRGTQFRNLVIELAG” was “failed”.

Turning to “MSQKRLSRVIYPGTFDPITNGHLDLIERAAQMFDEVIIAVAASPSKNTLFTLEERVEFARQVTSHLDNVSAKGFSGLLVDFAKAEKANVLIRGLRTTVDFEYEFGLTNMYRRLMPGLESVFLTPAEEHAFISSTLVREVAIHGGNVDEFVPAIVANALHQKKKI”, the protein production result is listed as “failed”. Consider “MSQLPTLIADLALILICAGVMTLLFKKLKQPLVLGYVVAGFLASPHMPYTPSVMDTANIKTWADIGVIFLLFALGLEFSFKKIVKVGGSAIIAACTIIFCMILLGIGVGMGFGWHRMDSLFLGGMIAMSSTTIIYKAFDDLGLRKKQFTGLVLSILILEDILAIVLMVMLSTMAVSHNFEGTEMLESIGKLLFFLILWFVVGIYLIPEFLKRCRKLMGEETLLIVSLALCFGMVVMAANTGFSAAFGAFIMGSILAETIEAESIDRLVKPVKDLFGAIFFVSVGMMVDPAMIIEYAIPIIVITIAVILGQATFGTFGVILSGKPLKTAMQCGFSLTQIGEFAFIIASLGVSLHVTSDFLYPIVVAVSVITTFLTPYMIRLAEPASSFVDAHLPASWRKFLMRYSSGSQTVLNHENLWKKLLLAMVRITVVYSIVSISIIALSFRFVVPFFKENLPHFWASLLGAVFIILCISPFLRAIMVKKNHSVEFMTLWHDNRANRAPLVSTIVIRIMIAALFVIFVISGLFKASIGLIIGVAVLAVLLMVWSRRLKKQSILIERRFFQNLRSREVRAEYLGEKKPEYAGRLLSHDLHLADLEIPGESTWAGKTLMELNLGKKYGIHIASILRGKRRINIPGGSVRLFPMDKIQVIGTDEQLNVFSSAMQSGAKIDWEMYEKGEMTLKQFIIDADSVFLGKTIRESGIRDKYHCMIAGVEREDGTLMVPDVNAPFEEGDVVWVVGEKENVYQLVDQKNEKIQVK”, for which the protein production result was “failed”. Turning to “MSQMMQMYQQVGPAQFSAMIGQFAPYFASIAPQFVELRPGYAEVTFPKRREVLNHIGTVHAIALCNAAELAAGTMTDASIPAGHRWIPRGMTVEYLAKATGDVRAVADGSQIDWQATGNLVVPVVAYVDDKPVFRAEITMYVSQA”, the protein production entry is given as “not failed”. Consider “MSQNLQETSQAYPRHRPGSHAGPKSLKVTPRATMYTFLPDNFSPAKPKPTKELRPLLCSAVLGLLLVLAAVVAWCYYSASLRKAERLRAELLDLNRGGFSIRNQKGEQVFRLAFRSGALDLDSCSRDGALLGCSRAADGRPLHFFIQTVRPKDTVMCYRVRWEEAVPGRAVEHAMFLGDAAAHWYGGAEMRTQHWPIRLDGQQEPQPFVTSDVYSSDAAFGGILERYWLSSRAAAIKVNDSVPFHLGWNSTERSMRLQARYHDTSYKPPAGRTAAPELSYRVCVGSDVTSIHKYMVRRYFNKPSRVPASEAFRDPIWSTWALHGRAVDQNKVLQFAQQIRQHRFNSSHLEIDDMYTPAYGDFNFDEGKFPNASDMFRRLRDAGFRVTLWVHPFVNYNSSSFGEGVERELFVREPTGRLPALVRWWNGIGAVLDFTHPEAREWFQGHLRRLRLRYNVTSFKFDAGEVSYLPRDFSTYRPLSDPSVWSRRYTEMAEPFFSLAEVRVGYQSQNISCFFRLVDRDSVWGYDLGLRSLIPAVLTVSMLGYPFILPDMIGGNAVPERTAGRQDGPGPERELYVRWLEVAAFMPAMQFSIPPWQYDAEVVAIAHKFAALRASLVAPLLLELAGEITDTGDPIVRPLWWIAPGDETAHRIDSQFLIGDTLLVAPVLEPGKQERDVYLPAGKWRSYKGELFDKTPVLLTDYPVDLDEVAYFTWAS”, for which the protein production entry is given as “failed”. As to “MSQPTPAVRTFQDLILALQQYWAEQGCVVLQPYDMEVGAGTFHTATFLRAIGPETWNAAYVQPSRRPTDGRYGENPNRLQHYYQFQVVLKPNPENFQELYLGSLKHVGLDPLVHDIRFVEDNWESPTLGAWGLGWEVWLNGMEVTQFTYFQQAGGIECYPVTGEITYGLERLAMYLQGVDSVYDLVWADGPFGKVTYGDVFHQNEVEQSTYNFEHANVEKLFELFDFYESEAKRLIELDQPLPLPSYEMVLKASHTFNLLDARRAISVTARQQYILRVRTLARSVAQAYLLARAKLGFPMATPDLRDEVLAKLEAAQ”, the protein production result is given as “failed”. In the case of “MSQRKYFGTDGVRGEVGGPVINAAFALRLGYAAGRVLAREHREHASGRGRNRPQVVIGKDTRISGYMLESALEAGLSAAGIDVLLAGPVPTPAVAYLTRTLRLAAGIVISASHNPYQDNGIKFFSAHGMKLPDDIEAAIEQALDEPLGCVGSEELGRARRMADAQGRYIEFCKSTFPHDLDLNGLKLVVDAAHGAAYNVAPHVFRELGAEVHAIGVSPDGFNINKGVGALHPESLAEEVRARGADLGIALDGDADRLQMVDGTGRIYNGDELLYAIVRERMQRGPVAGVVGTLMTNYGLERQLQQIGVGFERANVGDRYVLEQMQARGWLYGGESSGHLLCLDCHTTGDGTIAALQVLTALRRADATLAEWVADLRMYPQKMINVPLAPGLDWKTHDGLARARGAVEAELAGRGRVLIRASGTEPKLRLMVEAEDEALAQASAQKLADSLGA”, the protein production result is on record as “failed”. The same measure for “MSQSQLLQKLASRLPLGVCVVDEHYQIIYWNEFFTDRLPTAKSDTQENNLLTLFPEAAKFLQKKINSVFVLNNASFSYWEHRPHVFDFSSSRPITGEETAMYQNIEFFPLDIEDHQVKTVCLIVQDVTELASYYQAQKCLSEQLEQEHTALSLLNKKLEAAQNQLLQSEKMVAIGQLAAGVAHEINNPIGFVNSNLQSLQDYNNKLLKLLNFYQKLTHKIGSVPYFTLEQDMLKRYQFEFICSDLPDLIRESIEGLDRVAVIVKSLKSFSHVDSSEWQYANVIEGIENTLKIAANQIKYKAVVLRNFQDNLPELYCQPMQLNQVFLNLLVNAAQAIEERGEISIDVSASDAEFIIVIRDTGSGIAASDLRKIFEPFYTTKLVGTGTGLGLSLSYSIVQKHKGEIKVSSVLGEGTAFTVILPILSPEDVA”: “failed”; for “MSQSSDASEKEKPKEKKSQEELEKELDKELKKGGEPKTKKDDQIHKIGETFKAGHTNFTVNKVDRVQKGEYMNVGGAVNEETKTIKDDEERLIIEVTMENIGEDSISYNFIGFDLRDKNDQSVRPVFSIEEKGRILMGGTLVSGKKVTGVLSYVIPKGEQKHYTLVYNPFLADTNSSNTEERVKDDIDYLVKLDLEHHHHHH”: “not failed”.
